T1: MPP6, Q9NZW5
T1 sequence (Q9NZW5 125-219, limits assumed, looked up): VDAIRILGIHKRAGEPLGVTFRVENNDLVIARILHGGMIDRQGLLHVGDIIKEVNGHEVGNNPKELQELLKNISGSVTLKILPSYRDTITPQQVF

T2: SNTG1, Q9NSN8
T2 sequence (Q9NSN8 52-150, limits assumed, looked up): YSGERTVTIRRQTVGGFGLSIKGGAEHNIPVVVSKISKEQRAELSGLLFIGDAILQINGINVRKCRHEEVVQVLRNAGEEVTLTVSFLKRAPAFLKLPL

T3: DLG3_2, Q92796
T3 sequence (Q92796 221-321, limits assumed, looked up): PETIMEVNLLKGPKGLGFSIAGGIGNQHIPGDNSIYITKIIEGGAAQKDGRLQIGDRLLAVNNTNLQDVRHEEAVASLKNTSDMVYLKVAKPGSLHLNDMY

T4: MPP7, Q5T2T1
T4 sequence (Q5T2T1 134-230, limits assumed, looked up): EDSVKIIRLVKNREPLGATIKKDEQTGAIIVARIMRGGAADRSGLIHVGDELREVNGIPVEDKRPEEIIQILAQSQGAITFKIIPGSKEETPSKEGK

T5: CARD11, Q9BXL7
T5 sequence (Q9BXL7 662-765, limits assumed, looked up): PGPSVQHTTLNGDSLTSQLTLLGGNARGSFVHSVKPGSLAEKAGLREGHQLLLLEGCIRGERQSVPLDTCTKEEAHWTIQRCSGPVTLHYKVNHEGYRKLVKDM

T6: GRIP1_4, Q9Y3R0
T6 sequence (Q9Y3R0 467-571, limits assumed, looked up): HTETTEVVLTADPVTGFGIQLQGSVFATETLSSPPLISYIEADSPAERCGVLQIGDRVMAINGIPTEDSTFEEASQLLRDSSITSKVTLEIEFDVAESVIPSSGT

T7: RAPGEF6, Q8TEU7
T7 sequence (Q8TEU7 525-625, limits assumed, looked up): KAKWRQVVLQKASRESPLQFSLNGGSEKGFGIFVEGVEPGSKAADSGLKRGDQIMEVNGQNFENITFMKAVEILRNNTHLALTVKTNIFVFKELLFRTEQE

T8: FRMPD1, Q5SYB0
T8 sequence (Q5SYB0 52-145, limits assumed, looked up): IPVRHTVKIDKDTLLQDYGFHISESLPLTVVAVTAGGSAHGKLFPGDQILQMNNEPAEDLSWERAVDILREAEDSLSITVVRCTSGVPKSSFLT

T9: LIN7A, O14910
T9 sequence (O14910 103-200, limits assumed, looked up): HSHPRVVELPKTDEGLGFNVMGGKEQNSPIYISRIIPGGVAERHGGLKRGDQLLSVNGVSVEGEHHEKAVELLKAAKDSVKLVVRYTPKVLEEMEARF


Tests used:
Test in all cases: holdup assay
Design in all cases: key: below the threshold = too weak to quantify, mostly under pKd 3.1 to 4
Details in all cases: plain residues with an end cap or a label only (N-terminal biotin on a linker: ado-ado)
[1] = biological target: HTRA2, O43464
[2] = biological target: T1, MPP6, Q9NZW5
[3] = biological target: MAGI1_1, Q96QZ7
[4] = biological target: T2, SNTG1, Q9NSN8
[5] = biological target: LNX1_1, Q8TBB1
[6] = biological target: T3, DLG3_2, Q92796
[7] = biological target: T4, MPP7, Q5T2T1
[8] = biological target: T5, CARD11, Q9BXL7
[9] = biological target: PDZRN4_1, Q6ZMN7
[10] = biological target: T6, GRIP1_4, Q9Y3R0
[11] = biological target: GRIP2_6, Q9C0E4
[12] = biological target: HTRA1, Q92743
[13] = biological target: AHNAK1, Q09666
[14] = biological target: NHERF4_4, Q86UT5
[15] = biological target: T7, RAPGEF6, Q8TEU7
[16] = biological target: MAGI1_2, Q96QZ7
[17] = biological target: Inadl_9, Q8NI35
[18] = biological target: T8, FRMPD1, Q5SYB0
[19] = biological target: GRIP2_4, Q9C0E4
[20] = biological target: T9, LIN7A, O14910
[21] = biological target: FRMPD2_3, Q68DX3
[22] = biological target: IL16_3, Q14005
[23] = biological target: IL16_4, Q14005
[24] = biological target: GRIP2_5, Q9C0E4
[25] = biological target: LDB3, O75112
[26] = biological target: DLG1_2, Q12959
[27] = biological target: LNX1_3, Q8TBB1
[28] = biological target: LIMK2, P53671
[29] = biological target: MAST1, Q9Y2H9
MAST1, Q9Y2H9, sequence (Q9Y2H9 962-1065): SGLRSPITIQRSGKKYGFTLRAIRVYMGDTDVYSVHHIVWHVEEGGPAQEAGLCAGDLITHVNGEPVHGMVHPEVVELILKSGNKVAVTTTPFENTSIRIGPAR

DLG1_2, Q12959, sequence (Q12959 314-412): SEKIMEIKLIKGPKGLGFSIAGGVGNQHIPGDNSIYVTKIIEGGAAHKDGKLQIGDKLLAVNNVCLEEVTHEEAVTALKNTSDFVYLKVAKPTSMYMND
HTRA1, Q92743, sequence (Q92743 360-477): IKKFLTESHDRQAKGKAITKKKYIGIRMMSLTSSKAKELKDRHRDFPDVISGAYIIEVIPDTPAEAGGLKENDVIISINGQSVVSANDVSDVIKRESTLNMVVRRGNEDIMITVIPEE
GRIP2_6, Q9C0E4, sequence (Q9C0E4 648-740): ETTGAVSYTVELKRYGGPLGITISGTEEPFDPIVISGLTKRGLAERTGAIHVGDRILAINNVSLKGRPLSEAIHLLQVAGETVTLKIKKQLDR
LNX1_3, Q8TBB1, sequence (Q8TBB1 500-596): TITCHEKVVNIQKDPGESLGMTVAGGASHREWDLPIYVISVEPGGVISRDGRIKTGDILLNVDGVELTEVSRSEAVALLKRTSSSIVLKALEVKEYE
Inadl_9, Q8NI35, sequence (Q8NI35 1530-1615): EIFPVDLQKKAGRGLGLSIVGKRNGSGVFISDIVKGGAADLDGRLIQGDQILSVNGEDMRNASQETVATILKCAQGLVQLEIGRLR
PDZRN4_1, Q6ZMN7, sequence (Q6ZMN7 213-318): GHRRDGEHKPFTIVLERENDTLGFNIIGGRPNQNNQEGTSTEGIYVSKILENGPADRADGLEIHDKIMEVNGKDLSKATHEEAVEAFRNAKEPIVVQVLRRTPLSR
LIMK2, P53671, sequence (P53671 143-248): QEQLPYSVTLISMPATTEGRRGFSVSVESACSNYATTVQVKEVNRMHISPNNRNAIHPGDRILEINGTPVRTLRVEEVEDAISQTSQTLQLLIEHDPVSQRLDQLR
FRMPD2_3, Q68DX3, sequence (Q68DX3 1073-1166): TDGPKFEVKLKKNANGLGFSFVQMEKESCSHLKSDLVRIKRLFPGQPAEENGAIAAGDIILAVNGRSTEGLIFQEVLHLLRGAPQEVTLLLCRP
IL16_3, Q14005, sequence (Q14005 1107-1207): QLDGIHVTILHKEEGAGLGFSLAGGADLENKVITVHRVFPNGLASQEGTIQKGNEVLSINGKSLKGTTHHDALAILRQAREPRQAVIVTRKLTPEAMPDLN
HTRA2, O43464, sequence (O43464 355-458): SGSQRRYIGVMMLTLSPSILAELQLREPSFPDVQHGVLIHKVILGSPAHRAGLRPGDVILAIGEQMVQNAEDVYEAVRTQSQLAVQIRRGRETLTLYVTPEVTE
LNX1_1, Q8TBB1, sequence (Q8TBB1 261-371): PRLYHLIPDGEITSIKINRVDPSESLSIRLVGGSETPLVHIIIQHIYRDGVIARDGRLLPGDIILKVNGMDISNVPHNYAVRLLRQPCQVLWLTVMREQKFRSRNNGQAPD
AHNAK1, Q09666, sequence (Q09666 4-100): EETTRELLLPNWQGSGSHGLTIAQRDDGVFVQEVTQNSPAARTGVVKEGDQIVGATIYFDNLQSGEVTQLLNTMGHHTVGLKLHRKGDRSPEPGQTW
MAGI1_2, Q96QZ7, sequence (Q96QZ7 456-580): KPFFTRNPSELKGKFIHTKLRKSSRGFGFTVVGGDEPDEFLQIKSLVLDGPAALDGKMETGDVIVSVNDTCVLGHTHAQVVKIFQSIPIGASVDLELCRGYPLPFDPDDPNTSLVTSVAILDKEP
NHERF4_4, Q86UT5, sequence (Q86UT5 464-550): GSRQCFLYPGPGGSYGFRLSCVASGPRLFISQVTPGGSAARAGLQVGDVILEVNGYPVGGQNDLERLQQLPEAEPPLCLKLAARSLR
IL16_4, Q14005, sequence (Q14005 1229-1329): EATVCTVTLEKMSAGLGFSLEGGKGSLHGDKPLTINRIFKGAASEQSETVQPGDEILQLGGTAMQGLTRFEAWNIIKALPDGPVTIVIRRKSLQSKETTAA
MAGI1_1, Q96QZ7, sequence (Q96QZ7 1-106): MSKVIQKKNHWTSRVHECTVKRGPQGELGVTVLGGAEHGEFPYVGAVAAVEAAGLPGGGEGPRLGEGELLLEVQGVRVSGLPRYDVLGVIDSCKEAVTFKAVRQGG
GRIP2_5, Q9C0E4, sequence (Q9C0E4 544-642): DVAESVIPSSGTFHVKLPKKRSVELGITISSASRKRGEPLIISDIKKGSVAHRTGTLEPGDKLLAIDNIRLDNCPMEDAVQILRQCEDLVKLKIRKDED
LDB3, O75112, sequence (O75112 1-94): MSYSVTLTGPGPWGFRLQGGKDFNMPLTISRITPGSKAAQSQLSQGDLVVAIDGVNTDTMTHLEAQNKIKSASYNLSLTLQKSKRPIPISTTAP
GRIP2_4, Q9C0E4, sequence (Q9C0E4 446-548): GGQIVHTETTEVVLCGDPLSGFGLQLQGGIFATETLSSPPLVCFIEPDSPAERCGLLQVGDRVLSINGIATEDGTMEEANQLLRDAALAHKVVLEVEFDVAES

| Binder | pKd [1] | pKd [2] | pKd [3] | pKd [4] | pKd [5] | pKd [6] | pKd [7] | pKd [8] | pKd [9] | pKd [10] | pKd [11] | pKd [12] | pKd [13] | pKd [14] | pKd [15] | pKd [16] | pKd [17] | pKd [18] | pKd [19] | pKd [20] | further results |
| --- | --- | --- | --- | --- | --- | --- | --- | --- | --- | --- | --- | --- | --- | --- | --- | --- | --- | --- | --- | --- | --- |
| QSLNRMEYIV [JAG1, P78504] | 3.88 | 3.9 | below the threshold | below the threshold | below the threshold | 4.45 | 3.98 | below the threshold | below the threshold | below the threshold | 4.61 | 5.37 | below the threshold | below the threshold | below the threshold | below the threshold | 3.65 | below the threshold | below the threshold | below the threshold | pKd [21]: 4.36; pKd [22]: below the threshold; pKd [23]: below the threshold; pKd [24]: below the threshold; pKd [25]: below the threshold; pKd [26]: below the threshold; pKd [27]: 3.96; pKd [28]: below the threshold; pKd [29]: 3.49 |
| VRNLPESEEL [MYOZ3, Q8TDC0] | below the threshold | 3.64 | below the threshold | below the threshold | below the threshold | below the threshold | below the threshold | below the threshold | below the threshold | below the threshold | below the threshold | 3.84 | below the threshold | 3.85 | below the threshold | below the threshold | below the threshold | below the threshold | below the threshold | below the threshold | pKd [21]: below the threshold; pKd [22]: below the threshold; pKd [23]: below the threshold; pKd [24]: below the threshold; pKd [25]: 5.19; pKd [26]: below the threshold; pKd [27]: below the threshold; pKd [28]: below the threshold; pKd [29]: 4.11 |
| LPHGHSTTRV [NLGN4X, Q8N0W4] | below the threshold | below the threshold | below the threshold | below the threshold | 3.79 | 3.85 | below the threshold | below the threshold | below the threshold | below the threshold | below the threshold | 3.72 | below the threshold | below the threshold | below the threshold | 4.23 | below the threshold | below the threshold | below the threshold | below the threshold | pKd [21]: below the threshold; pKd [22]: below the threshold; pKd [23]: 3.74; pKd [24]: below the threshold; pKd [25]: below the threshold; pKd [26]: 4.04; pKd [27]: below the threshold; pKd [28]: below the threshold; pKd [29]: 4.7 |

The next lines start with results.

| pKd [1] | pKd [2] | pKd [3] | pKd [4] | pKd [5] | pKd [6] | pKd [7] | pKd [8] | pKd [9] | pKd [10] | pKd [11] | pKd [12] | pKd [13] | pKd [14] | pKd [15] | pKd [16] | pKd [17] | pKd [18] | pKd [19] | pKd [20] | Binder | further results |
| --- | --- | --- | --- | --- | --- | --- | --- | --- | --- | --- | --- | --- | --- | --- | --- | --- | --- | --- | --- | --- | --- |
| below the threshold | below the threshold | below the threshold | 4.45 | 3.66 | 4.53 | below the threshold | below the threshold | 5.27 | below the threshold | below the threshold | 3.86 | below the threshold | below the threshold | below the threshold | 3.76 | below the threshold | below the threshold | below the threshold | 4.04 | RHGSCVETSL [TMEM151B, Q8IW70] | pKd [21]: below the threshold; pKd [22]: below the threshold; pKd [23]: 3.61; pKd [24]: below the threshold; pKd [25]: below the threshold; pKd [26]: 4.88; pKd [27]: below the threshold; pKd [28]: below the threshold; pKd [29]: 5.12 |
| below the threshold | below the threshold | below the threshold | below the threshold | below the threshold | 4.21 | below the threshold | below the threshold | below the threshold | below the threshold | below the threshold | below the threshold | below the threshold | below the threshold | below the threshold | below the threshold | below the threshold | below the threshold | below the threshold | below the threshold | GNSVLKSTQF [SLC22A12, Q96S37] | pKd [21]: below the threshold; pKd [22]: below the threshold; pKd [23]: 3.58; pKd [24]: below the threshold; pKd [25]: below the threshold; pKd [26]: below the threshold; pKd [27]: below the threshold; pKd [28]: below the threshold; pKd [29]: 4.26 |
